Reference: patent US20080161236 (published 2008)

Experiments:
[1] = target: Botulinum neurotoxin serotype B holotoxin (Clostridium botulinum, UniProt B1INP5;B1INP5 B1INP5:2-441,B1INP5:442-1291)
[2] = target: Botulinum neurotoxin serotype B light chain (Clostridium botulinum, UniProt B1INP5 B1INP5:2-441)
[3] = target: Botulinum neurotoxin serotype A light chain (50 kD zinc endopeptidase) (Clostridium botulinum, UniProt P0DPI1 P0DPI1:2-448)
[4] = target: Botulinum neurotoxin serotype A holotoxin (Clostridium botulinum, UniProt P0DPI1;P0DPI1 P0DPI1:2-448,P0DPI1:449-1296)

Measured: binding result

Chain of Botulinum neurotoxin serotype B light chain (B1INP5 2-441, one chain of several): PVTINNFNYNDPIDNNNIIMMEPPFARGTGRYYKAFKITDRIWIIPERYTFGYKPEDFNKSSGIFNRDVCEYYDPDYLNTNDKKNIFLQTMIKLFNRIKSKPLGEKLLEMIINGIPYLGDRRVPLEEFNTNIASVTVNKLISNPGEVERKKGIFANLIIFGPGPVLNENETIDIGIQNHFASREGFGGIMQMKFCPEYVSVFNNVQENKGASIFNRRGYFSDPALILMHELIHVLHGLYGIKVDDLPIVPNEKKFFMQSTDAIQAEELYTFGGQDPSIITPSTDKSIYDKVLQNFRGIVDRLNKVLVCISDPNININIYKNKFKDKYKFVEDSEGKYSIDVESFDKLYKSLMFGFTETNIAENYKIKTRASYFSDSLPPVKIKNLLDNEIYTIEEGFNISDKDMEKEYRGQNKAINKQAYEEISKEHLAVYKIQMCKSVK
Chain of Botulinum neurotoxin serotype B holotoxin (B1INP5 2-441, chain 1 of 2): as the sequence (B1INP5 2-441, one chain of several) above
Chain of Botulinum neurotoxin serotype B holotoxin (B1INP5 442-1291, chain 2 of 2): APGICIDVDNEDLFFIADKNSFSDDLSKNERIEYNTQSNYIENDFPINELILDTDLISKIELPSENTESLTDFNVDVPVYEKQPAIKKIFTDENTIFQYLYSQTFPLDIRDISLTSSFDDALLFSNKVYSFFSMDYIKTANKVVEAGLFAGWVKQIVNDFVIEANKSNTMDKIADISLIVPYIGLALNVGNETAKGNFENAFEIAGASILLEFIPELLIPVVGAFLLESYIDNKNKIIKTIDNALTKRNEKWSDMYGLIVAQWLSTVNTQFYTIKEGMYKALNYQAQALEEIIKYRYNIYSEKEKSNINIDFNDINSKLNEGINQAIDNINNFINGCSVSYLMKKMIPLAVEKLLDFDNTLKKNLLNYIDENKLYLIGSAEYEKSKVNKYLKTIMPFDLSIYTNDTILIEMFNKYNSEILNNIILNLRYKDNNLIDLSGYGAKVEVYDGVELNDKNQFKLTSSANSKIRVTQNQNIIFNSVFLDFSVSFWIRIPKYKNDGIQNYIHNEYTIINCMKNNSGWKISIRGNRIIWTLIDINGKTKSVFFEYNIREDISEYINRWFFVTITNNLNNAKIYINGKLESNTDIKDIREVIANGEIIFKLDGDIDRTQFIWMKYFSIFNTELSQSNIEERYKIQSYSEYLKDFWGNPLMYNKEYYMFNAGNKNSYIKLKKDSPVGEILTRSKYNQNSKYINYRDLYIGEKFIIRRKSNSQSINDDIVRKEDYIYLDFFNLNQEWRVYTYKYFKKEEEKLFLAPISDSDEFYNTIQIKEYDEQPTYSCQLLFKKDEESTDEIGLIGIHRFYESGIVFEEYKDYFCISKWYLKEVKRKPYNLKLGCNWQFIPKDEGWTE
Chain of Botulinum neurotoxin serotype A light chain (50 kD zinc endopeptidase) (P0DPI1 2-448, one chain of several): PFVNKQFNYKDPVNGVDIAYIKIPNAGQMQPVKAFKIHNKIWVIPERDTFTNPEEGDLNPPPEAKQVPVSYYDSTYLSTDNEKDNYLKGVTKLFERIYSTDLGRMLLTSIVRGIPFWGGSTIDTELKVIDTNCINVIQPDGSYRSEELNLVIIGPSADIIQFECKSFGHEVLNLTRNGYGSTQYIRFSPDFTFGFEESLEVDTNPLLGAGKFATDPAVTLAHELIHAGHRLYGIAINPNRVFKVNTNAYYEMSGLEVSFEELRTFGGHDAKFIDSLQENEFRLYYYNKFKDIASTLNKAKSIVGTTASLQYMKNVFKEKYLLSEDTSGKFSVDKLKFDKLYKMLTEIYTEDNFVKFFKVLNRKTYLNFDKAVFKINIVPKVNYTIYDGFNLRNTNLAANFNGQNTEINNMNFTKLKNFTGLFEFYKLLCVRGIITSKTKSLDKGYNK
Chain of Botulinum neurotoxin serotype A holotoxin (P0DPI1 2-448, chain 1 of 2): as the sequence (P0DPI1 2-448, one chain of several) above
Chain of Botulinum neurotoxin serotype A holotoxin (P0DPI1 449-1296, chain 2 of 2): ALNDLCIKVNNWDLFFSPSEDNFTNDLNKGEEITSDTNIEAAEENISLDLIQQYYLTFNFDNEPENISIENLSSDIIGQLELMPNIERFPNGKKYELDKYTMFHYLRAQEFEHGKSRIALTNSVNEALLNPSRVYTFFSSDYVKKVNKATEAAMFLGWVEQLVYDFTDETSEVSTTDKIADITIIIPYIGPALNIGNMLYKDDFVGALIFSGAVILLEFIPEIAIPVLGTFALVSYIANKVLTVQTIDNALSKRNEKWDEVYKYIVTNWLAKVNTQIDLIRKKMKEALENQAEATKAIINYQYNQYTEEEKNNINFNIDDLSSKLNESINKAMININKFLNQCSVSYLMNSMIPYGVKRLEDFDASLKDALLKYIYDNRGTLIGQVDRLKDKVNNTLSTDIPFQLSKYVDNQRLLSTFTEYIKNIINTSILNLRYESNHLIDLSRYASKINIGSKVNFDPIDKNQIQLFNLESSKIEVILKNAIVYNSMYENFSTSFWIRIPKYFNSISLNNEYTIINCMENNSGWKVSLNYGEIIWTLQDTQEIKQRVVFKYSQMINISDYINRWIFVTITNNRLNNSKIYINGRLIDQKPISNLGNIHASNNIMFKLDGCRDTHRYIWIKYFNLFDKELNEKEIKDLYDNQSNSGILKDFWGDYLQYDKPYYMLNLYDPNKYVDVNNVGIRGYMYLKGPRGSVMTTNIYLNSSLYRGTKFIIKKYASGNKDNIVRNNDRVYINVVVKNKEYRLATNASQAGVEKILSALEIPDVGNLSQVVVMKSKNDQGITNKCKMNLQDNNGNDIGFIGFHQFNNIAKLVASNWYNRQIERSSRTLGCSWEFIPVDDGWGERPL

B1: BoNT A/B HT aptamer (ssDNA)
DNA: CATCCGTCACACCTGCTCTGCTATCACATGCCTGCTGAAGTGGTGTTGGCTCCCGTATCA
binds: [1] | [2] | [3]

B2: BoNT A/B LC aptamer (ssDNA)
DNA: CATCCGTCACACCTGCTCTGATCAGGGAAGACGCCAACACTGGTGTTGGCTCCCGTATCA
binds: all assays above
